FireProtDB (doi:10.1006/jmbi.2000.4053)
Several values for one entry are separate records, joined by “and”; a condition that tells them apart may be missing. Identical values can stand only once.

Conditions: Homo sapiens, pH 5, 25 °C
[1] = GdnHCl, CD, Sodium acetate 50 mM, structure 1TTG
[2] = Urea, CD, Sodium acetate 50 mM, structure 1TEN
[3] = GdnHCl, Fluorescence, Sodium acetate 50mM, transition: 2, structure 1TEN
[4] = GdnHCl, Fluorescence, Sodium acetate 50mM, transition: 2, structure 1FNF

Fibronectin Y1605F, P02751, sequence (P02751 whole entry Y1605F): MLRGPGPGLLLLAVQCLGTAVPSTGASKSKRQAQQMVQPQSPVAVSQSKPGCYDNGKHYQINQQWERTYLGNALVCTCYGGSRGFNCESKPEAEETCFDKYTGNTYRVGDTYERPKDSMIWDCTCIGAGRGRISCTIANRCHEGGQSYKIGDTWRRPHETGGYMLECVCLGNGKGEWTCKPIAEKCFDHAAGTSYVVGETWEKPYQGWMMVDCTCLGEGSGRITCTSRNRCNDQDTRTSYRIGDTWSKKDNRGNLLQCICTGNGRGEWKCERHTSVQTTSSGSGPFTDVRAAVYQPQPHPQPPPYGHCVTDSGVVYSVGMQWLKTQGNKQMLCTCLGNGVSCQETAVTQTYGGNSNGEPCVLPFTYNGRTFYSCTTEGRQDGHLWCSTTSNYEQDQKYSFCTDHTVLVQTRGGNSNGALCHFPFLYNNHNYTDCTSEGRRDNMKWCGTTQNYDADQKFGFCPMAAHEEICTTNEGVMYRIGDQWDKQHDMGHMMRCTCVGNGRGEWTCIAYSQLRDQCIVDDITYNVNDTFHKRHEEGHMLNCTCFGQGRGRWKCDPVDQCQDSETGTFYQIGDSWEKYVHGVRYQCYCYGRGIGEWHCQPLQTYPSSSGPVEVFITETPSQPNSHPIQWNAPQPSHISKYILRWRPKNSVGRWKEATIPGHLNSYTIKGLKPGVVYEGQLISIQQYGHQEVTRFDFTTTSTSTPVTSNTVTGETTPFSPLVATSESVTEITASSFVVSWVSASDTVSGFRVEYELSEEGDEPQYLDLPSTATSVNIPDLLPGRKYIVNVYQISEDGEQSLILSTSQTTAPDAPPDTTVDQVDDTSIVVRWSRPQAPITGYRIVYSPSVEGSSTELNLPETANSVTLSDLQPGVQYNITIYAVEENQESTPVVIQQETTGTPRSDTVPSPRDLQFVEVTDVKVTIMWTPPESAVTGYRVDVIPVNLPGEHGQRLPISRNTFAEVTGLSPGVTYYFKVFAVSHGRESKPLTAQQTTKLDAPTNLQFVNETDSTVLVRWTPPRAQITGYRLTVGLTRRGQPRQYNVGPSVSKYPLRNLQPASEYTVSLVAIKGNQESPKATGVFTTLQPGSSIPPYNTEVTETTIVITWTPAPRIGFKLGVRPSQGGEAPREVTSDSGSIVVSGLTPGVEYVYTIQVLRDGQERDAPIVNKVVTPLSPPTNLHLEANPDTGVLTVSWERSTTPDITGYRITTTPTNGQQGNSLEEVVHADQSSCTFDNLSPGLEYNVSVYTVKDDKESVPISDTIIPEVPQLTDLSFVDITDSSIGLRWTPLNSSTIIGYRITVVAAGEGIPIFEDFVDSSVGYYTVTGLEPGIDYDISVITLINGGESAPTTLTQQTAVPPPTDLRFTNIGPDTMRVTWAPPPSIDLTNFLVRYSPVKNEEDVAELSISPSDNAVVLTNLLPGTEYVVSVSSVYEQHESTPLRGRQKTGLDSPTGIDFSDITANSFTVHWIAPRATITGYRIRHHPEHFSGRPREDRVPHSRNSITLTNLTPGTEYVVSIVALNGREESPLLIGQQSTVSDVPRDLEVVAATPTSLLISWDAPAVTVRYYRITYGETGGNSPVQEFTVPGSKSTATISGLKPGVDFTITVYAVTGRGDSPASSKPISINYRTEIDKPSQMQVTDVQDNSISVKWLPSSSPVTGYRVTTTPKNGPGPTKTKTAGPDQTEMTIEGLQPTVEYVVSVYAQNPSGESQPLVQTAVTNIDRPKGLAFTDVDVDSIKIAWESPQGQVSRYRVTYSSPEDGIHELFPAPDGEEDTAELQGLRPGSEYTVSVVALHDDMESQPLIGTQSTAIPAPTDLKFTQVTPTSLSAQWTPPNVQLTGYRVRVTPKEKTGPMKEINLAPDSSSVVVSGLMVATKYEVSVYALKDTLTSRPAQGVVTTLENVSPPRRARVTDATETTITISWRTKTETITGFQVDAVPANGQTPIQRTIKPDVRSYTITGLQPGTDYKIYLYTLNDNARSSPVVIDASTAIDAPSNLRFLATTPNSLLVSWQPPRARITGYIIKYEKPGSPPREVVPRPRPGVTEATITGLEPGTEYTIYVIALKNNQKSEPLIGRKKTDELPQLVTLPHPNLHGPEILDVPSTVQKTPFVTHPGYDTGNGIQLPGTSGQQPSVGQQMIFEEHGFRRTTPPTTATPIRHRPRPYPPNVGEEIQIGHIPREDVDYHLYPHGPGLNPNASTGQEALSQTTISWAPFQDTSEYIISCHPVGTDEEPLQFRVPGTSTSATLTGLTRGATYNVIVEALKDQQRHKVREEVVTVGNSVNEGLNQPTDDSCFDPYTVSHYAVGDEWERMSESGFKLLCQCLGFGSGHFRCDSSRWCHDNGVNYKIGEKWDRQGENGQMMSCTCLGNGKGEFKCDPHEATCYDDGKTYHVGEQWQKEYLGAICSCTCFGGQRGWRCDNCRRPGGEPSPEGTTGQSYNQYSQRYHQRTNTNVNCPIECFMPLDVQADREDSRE
Fibronectin L1555A, P02751, sequence (P02751 whole entry L1555A): as the sequence (P02751 whole entry Y1605F) above, with L1555A, F1605Y counted along it

| Substance | ddG of mutation (higher = less stable) [1] | denaturant m value [1] [kcal/mol/M] | denaturant midpoint (higher = more stable) [1] [M] | ddG of mutation (higher = less stable) [2] | denaturant m value [2] [kcal/mol/M] | denaturant midpoint (higher = more stable) [2] [M] | ddG of mutation (higher = less stable) [3] [kcal/mol] | denaturant midpoint (higher = more stable) [3] [M] | other results |
| --- | --- | --- | --- | --- | --- | --- | --- | --- | --- |
| Fibronectin P1542A, P02751 | -0.11 kcal/mol | 6.4 | 1.49 |  |  |  |  |  |  |
| Tenascin, P24821 P884A |  |  |  | 0.11 kcal/mol | 1.1 | 5.23 |  |  |  |
| Tenascin, P24821 P865A |  |  |  | 0.93 kcal/mol | 1.2 | 4.55 | 0.93 | 1.2 | denaturant m value [3]: 4.32 kcal/mol/M |
| Tenascin, P24821 L863A |  |  |  | 4.22 kcal/mol | 1.5 | 1.86 | 4.22 | 1.2 | denaturant m value [3]: 4.55 kcal/mol/M |
| Tenascin, P24821 I821V |  |  |  | 0.23 kcal/mol | 1.2 | 5.13 | 0.23 | 1 | denaturant m value [3]: 3.9 kcal/mol/M |
| Fibronectin I1607A, P02751 | 3.72 kcal/mol | 5.6 | 0.9 |  |  |  |  |  |  |
| Tenascin, P24821 I860V |  |  |  | 0.83 kcal/mol | 1.2 | 4.64 | 0.83 | 1.5 | denaturant m value [3]: 1.86 kcal/mol/M |
| Fibronectin P1601A, P02751 | 0.41 kcal/mol | 6.6 | 1.41 |  |  |  |  |  |  |
| Fibronectin Y1569L, P02751 | 2.81 kcal/mol and 2.4 kcal/mol | 6.6 | 1.04 |  |  |  |  |  |  |
| Tenascin, P24821 Y858G |  |  |  | 4.14 kcal/mol and 2.76 kcal/mol | 1.3 | 1.93 |  | 1.3 | denaturant m value [3]: 4.19 kcal/mol/M |
| Tenascin, P24821 V871A |  |  |  | 2.81 kcal/mol | 1.3 | 3.01 |  |  |  |
| Fibronectin A1594G, P02751 | 2.81 kcal/mol | 7.1 | 1.04 |  |  |  |  |  |  |
| Fibronectin I1571V, P02751 | 0.41 kcal/mol | 6.9 | 1.41 |  |  |  |  |  |  |
| Tenascin, P24821 Y858A |  |  |  | 1.38 kcal/mol | 1.3 | 4.19 | 1.38 | 1.3 |  |
| Fibronectin I1627V, P02751 | 0.28 kcal/mol | 6.3 | 1.43 |  |  |  |  |  | ddG of mutation (higher = less stable) [4]: 1.12 kcal/mol; denaturant m value [4]: 7.1 kcal/mol/M; denaturant midpoint (higher = more stable) [4]: 0.91 M; unfolding free energy [4]: 8.28 kcal/mol |
| Tenascin, P24821 V811A |  |  |  | 1.36 kcal/mol | 1.2 | 4.21 | 1.36 | 1.3 | denaturant m value [3]: 3.03 kcal/mol/M |
| Tenascin, P24821 E887G |  |  |  | 0.34 kcal/mol | 1.3 | 5.04 | 0.34 |  |  |
| Tenascin, P24821 L835A |  |  |  | 4.29 kcal/mol | 1.4 | 1.8 |  |  |  |
| Fibronectin S1622A, P02751 | -0.11 kcal/mol | 6.5 | 1.49 |  |  |  |  |  |  |
| Tenascin, P24821 I860A |  |  |  | 2.06 kcal/mol | 1.3 | 3.63 |  |  |  |
| Fibronectin I1596V, P02751 | 1.12 kcal/mol | 7.1 | 1.3 |  |  |  |  |  |  |
| Fibronectin I1571A, P02751 | 5.02 kcal/mol | 6.9 | 0.7 |  |  |  |  |  |  |
| Fibronectin I1596A, P02751 | 3.66 kcal/mol | 7.2 | 0.91 |  |  |  |  |  |  |
| Fibronectin L1599A, P02751 | 2.94 kcal/mol | 6.6 | 1.02 |  |  |  |  |  |  |
| Tenascin, P24821 S882A |  |  |  |  |  |  | 2.82 | 1.1 | denaturant m value [3]: 5.23 kcal/mol/M |
| Tenascin, P24821 P806A |  |  |  | 2.74 kcal/mol | 1.1 | 3.07 | 2.74 | 1.3 | denaturant m value [3]: 2.98 kcal/mol/M |
| Tenascin, P24821 Y837A |  |  |  | 4.22 kcal/mol | 1.5 | 1.86 |  |  |  |
| Fibronectin L1555A, P02751 | 0.87 kcal/mol | 6.3 | 1.34 |  |  |  |  |  |  |

| Substance | ddG of mutation (higher = less stable) [1] | denaturant m value [1] [kcal/mol/M] | denaturant midpoint (higher = more stable) [1] [M] | ddG of mutation (higher = less stable) [2] | denaturant m value [2] [kcal/mol/M] | denaturant midpoint (higher = more stable) [2] [M] | ddG of mutation (higher = less stable) [3] [kcal/mol] | denaturant midpoint (higher = more stable) [3] [M] | other results |
| --- | --- | --- | --- | --- | --- | --- | --- | --- | --- |
| Fibronectin P1562A, P02751 | 0.48 kcal/mol | 6.5 | 1.4 |  |  |  |  |  |  |
| Fibronectin I1625V, P02751 | 0.35 kcal/mol | 6.5 | 1.42 |  |  |  |  |  |  |
| Tenascin, P24821 I809A |  |  |  | 2.86 kcal/mol | 1.3 | 2.98 | 2.86 | 1.3 | denaturant m value [3]: 5.17 kcal/mol/M |
| Tenascin, P24821 I830A |  |  |  | 1.38 kcal/mol | 1.1 | 4.19 | 1.38 | 1.2 | denaturant m value [3]: 5.06 kcal/mol/M |
| Tenascin, P24821 I821A |  |  |  | 3.67 kcal/mol | 1.3 | 2.31 | 3.67 | 1.2 | denaturant m value [3]: 5.13 kcal/mol/M |
| Fibronectin V1587A, P02751 | 2.42 kcal/mol | 5.7 | 1.1 |  |  |  |  |  |  |
| Fibronectin I1627A, P02751 | 0.35 kcal/mol | 6 | 1.42 |  |  |  |  |  | ddG of mutation (higher = less stable) [4]: 3.66 kcal/mol; denaturant m value [4]: 7.2 kcal/mol/M; denaturant midpoint (higher = more stable) [4]: 1.04 M; unfolding free energy [4]: 5.74 kcal/mol |
| Fibronectin V1566A, P02751 | 1.45 kcal/mol | 6.6 | 1.25 |  |  |  |  |  |  |
| Tenascin, P24821 Y869F |  |  |  | 3.13 kcal/mol | 1.3 | 2.75 | 3.13 | 1.3 | denaturant m value [3]: 3.01 kcal/mol/M |
| Tenascin, P24821 I833A |  |  |  | 3.28 kcal/mol | 1.2 | 2.63 | 3.28 | 1.1 | denaturant m value [3]: 4.91 kcal/mol/M |
| Fibronectin L1545A, P02751 | 1.64 kcal/mol | 6.2 | 1.22 |  |  |  |  |  |  |
| Fibronectin A1611G, P02751 | 1.38 kcal/mol | 6.2 | 1.26 |  |  |  |  |  |  |
| Fibronectin Y1629A, P02751 | 1.19 kcal/mol | 6.6 | 1.29 |  |  |  |  |  |  |
| Fibronectin F1585A, P02751 | 2.16 kcal/mol | 6.8 | 1.14 |  |  |  |  |  |  |
| Tenascin, P24821 L851A |  |  |  | 2.99 kcal/mol | 1.3 | 2.87 | 2.99 | 1.3 | denaturant m value [3]: 1.93 kcal/mol/M |
| Tenascin, P24821 I833V |  |  |  | 0.5 kcal/mol | 1.1 | 4.91 | 0.5 | 1.4 | denaturant m value [3]: 1.8 kcal/mol/M |
| Fibronectin Y1629F, P02751 | -0.11 kcal/mol | 6.5 | 1.49 |  |  |  |  |  |  |
| Fibronectin V1547A, P02751 | 1.38 kcal/mol | 6.8 | 1.26 |  |  |  |  |  |  |
| Tenascin, P24821 T867S |  |  |  | 1.22 kcal/mol | 1.2 | 4.32 |  |  |  |
| Fibronectin Y1569A, P02751 | 4.37 kcal/mol and 3.96 kcal/mol | 6.8 | 0.8 |  |  |  |  |  |  |
| Fibronectin V1603A, P02751 | 0.67 kcal/mol | 6.12 | 1.37 |  |  |  |  |  |  |
| Tenascin, P24821 P826A |  |  |  | 1.73 kcal/mol | 1 | 3.9 |  |  |  |
| Tenascin, P24821 I849A |  |  |  | 2.19 kcal/mol | 1.1 | 3.52 | 2.19 | 1.1 | denaturant m value [3]: 2.87 kcal/mol/M |
| Fibronectin Y1605F, P02751 | 2.03 kcal/mol | 6.2 | 1.16 |  |  |  |  |  |  |
| Fibronectin Y1569F, P02751 | 0.41 kcal/mol | 6.3 | 1.41 |  |  |  |  |  |  |
| Fibronectin A1550G, P02751 | 0.93 kcal/mol | 6.1 | 1.33 |  |  |  |  |  |  |
| Tenascin, P24821 F889A |  |  |  | 5.43 kcal/mol |  | 0.9 | 5.43 |  |  |
